From paper PMC8053115

Target: T1, NP C-terminal tail peptide (Influenza A virus A/HK/483/97 (H5N1), UniProt Q9PX50)
T1 chain: DNAEEYDN
Assay: MST

Binder: UUUUUUUUU (XNA, 2'-O-methyl) [Cy5 9-mer poly-uridine RNA]
- binding result: no binding
